± gives the uncertainty stated by the source.
B1: Histone H1t, residues 44 to 112; numbered along this chain, P22492 (parent)
chain: VSKLITEALSVSQERVGMSLVALKKALAAAGYDVEKNNSRIKLSLKSLVNKGILVQTRGTGASGSFKLS

Variants of: B1
Assay: abundance fitness (aPCA) (normalised: wild type 0, dead -1); higher = more abundant; growth selection in yeast, the domain comes from the species named
Conditions: Homo sapiens

R15F and R15P are within error of each other in abundance fitness: -0.258 ± 0.052 for the first, -0.163 ± 0.11 for the second.

Compared with R15L, R15T is higher in abundance fitness: -0.501 ± 0.046 for the first, 0.05 ± 0.055 for the second.

First: L23S
Second: L23M
The abundance fitness of the first is lower: -1 ± 0.06 for the first, -0.226 ± 0.038 for the second.

Compared with L23P, L23K is lower in abundance fitness: -0.885 ± 0.099 for the first, -1.12 ± 0.088 for the second.

Going from L23V to L23W, the abundance fitness falls from -0.076 ± 0.051 to -0.541 ± 0.061.

Going from V16R to V16T, the abundance fitness rises from -0.718 ± 0.39 to -0.024 ± 0.052.

First: V16Y
Second: V16F
The abundance fitness of the first is higher: -0.045 ± 0.033 for the first, -0.224 ± 0.03 for the second.

Compared with V16K, I5R is lower in abundance fitness: -0.16 ± 0.033 for the first, -1.24 ± 0.12 for the second.

Compared with I5F, I5N is lower in abundance fitness: -0.372 ± 0.038 for the first, -0.664 ± 0.15 for the second.

First: I5T
Second: I5M
The abundance fitness of the first is lower: -0.985 ± 0.16 for the first, -0.33 ± 0.043 for the second.

First: V34C
Second: V34E
The abundance fitness of the first is higher: -0.179 ± 0.059 for the first, -0.346 ± 0.049 for the second.

V34L and V34A are within error of each other in abundance fitness: -0.214 ± 0.03 for the first, -0.171 ± 0.036 for the second.

V34W and K51P are within error of each other in abundance fitness: -0.252 ± 0.042 for the first, -0.323 ± 0.036 for the second.

K51M and K51D are within error of each other in abundance fitness: -0.258 ± 0.053 for the first, -0.383 ± 0.13 for the second.

K51S and K51A are within error of each other in abundance fitness: -0.161 ± 0.05 for the first, -0.164 ± 0.056 for the second.

Q13D and Q13A are within error of each other in abundance fitness: -0.222 ± 0.14 for the first, -0.286 ± 0.095 for the second.

Compared with Q13C, Q13K is higher in abundance fitness: -0.233 ± 0.07 for the first, 0.014 ± 0.05 for the second.

E14I and E14C are within error of each other in abundance fitness: -0.712 ± 0.055 for the first, -0.838 ± 0.46 for the second.

E14T and E14R are within error of each other in abundance fitness: -0.4 ± 0.071 for the first, -0.61 ± 0.23 for the second.

First: E14A
Second: A29S
The abundance fitness of the first is lower: -0.456 ± 0.19 for the first, -0.039 ± 0.037 for the second.

A29L and A29F are within error of each other in abundance fitness: -0.255 ± 0.027 for the first, -0.276 ± 0.027 for the second.

First: K42I
Second: K42D
The abundance fitness of the first is higher: 0.094 ± 0.12 for the first, -0.096 ± 0.065 for the second.

Going from K42M to K42G, the abundance fitness falls from 0.14 ± 0.05 to -0.188 ± 0.039.

L45P and L45M are within error of each other in abundance fitness: -0.46 ± 0.049 for the first, -0.386 ± 0.089 for the second.

L45G and L45I are within error of each other in abundance fitness: -0.574 ± 0.15 for the first, -0.417 ± 0.28 for the second.

First: A26L
Second: A26Q
The abundance fitness of the first is higher: -0.138 ± 0.028 for the first, -0.381 ± 0.073 for the second.

Going from A26M to A26S, the abundance fitness falls from -0.033 ± 0.035 to -0.121 ± 0.043.

A26V and A26H are within error of each other in abundance fitness: -0.064 ± 0.075 for the first, -0.167 ± 0.06 for the second.

Going from I41L to I41G, the abundance fitness falls from -0.124 ± 0.026 to -0.405 ± 0.041.

Going from I41H to F66M, the abundance fitness rises from -0.444 ± 0.049 to -0.173 ± 0.039.

F66Q and F66S are within error of each other in abundance fitness: -0.072 ± 0.043 for the first, -0.108 ± 0.033 for the second.

Compared with F66V, S63C is lower in abundance fitness: -0.078 ± 0.041 for the first, -0.54 ± 0.21 for the second.

S63I and S63L are within error of each other in abundance fitness: -0.045 ± 0.057 for the first, 0.006 ± 0.028 for the second.

S63T and V21D are within error of each other in abundance fitness: 0.004 ± 0.039 for the first, 0 ± 0.093 for the second.

Compared with V21A, V21I is lower in abundance fitness: 0.091 ± 0.1 for the first, -0.067 ± 0.028 for the second.

V21S and V21M are within error of each other in abundance fitness: 0.018 ± 0.04 for the first, -0.037 ± 0.029 for the second.

Going from V21R to V21P, the abundance fitness falls from 0.113 ± 0.082 to -0.199 ± 0.071.

First: V21N
Second: G59L
The abundance fitness of the first is higher: 0.123 ± 0.03 for the first, -0.049 ± 0.028 for the second.

Compared with G59N, G59D is higher in abundance fitness: -0.186 ± 0.091 for the first, 0.025 ± 0.078 for the second.

Compared with G59R, G59K is higher in abundance fitness: -0.146 ± 0.033 for the first, 0.001 ± 0.046 for the second.

Going from G59Q to G59Y, the abundance fitness falls from -0.079 ± 0.036 to -0.222 ± 0.064.

Compared with L48W, L48A is lower in abundance fitness: -0.402 ± 0.15 for the first, -0.755 ± 0.084 for the second.

First: L48S
Second: L48T
The abundance fitness of the first is lower: -0.801 ± 0.068 for the first, -0.592 ± 0.064 for the second.

First: L48F
Second: L48K
The abundance fitness of the first is higher: -0.404 ± 0.039 for the first, -0.939 ± 0.079 for the second.

Going from G64L to G64H, the abundance fitness falls from 0.05 ± 0.031 to -0.209 ± 0.088.

Going from G64F to G64C, the abundance fitness rises from -0.067 ± 0.057 to 0.275 ± 0.063.

G64R and G64E are within error of each other in abundance fitness: -0.026 ± 0.039 for the first, 0.054 ± 0.14 for the second.

Going from G64I to A30N, the abundance fitness falls from 0.103 ± 0.12 to -0.271 ± 0.1.

A30P and A30H are within error of each other in abundance fitness: -0.364 ± 0.052 for the first, -0.312 ± 0.09 for the second.

Going from A30I to A30S, the abundance fitness rises from -0.318 ± 0.087 to -0.09 ± 0.04.

Going from A30D to A30Q, the abundance fitness rises from -0.328 ± 0.093 to -0.137 ± 0.053.

A22V and A22N are within error of each other in abundance fitness: -0.358 ± 0.11 for the first, -0.262 ± 0.33 for the second.

A22G and A22K are within error of each other in abundance fitness: -0.45 ± 0.3 for the first, -0.192 ± 0.24 for the second.

L68Y and L68E are within error of each other in abundance fitness: -0.185 ± 0.042 for the first, -0.099 ± 0.068 for the second.

L68G and L68D are within error of each other in abundance fitness: -0.049 ± 0.037 for the first, -0.147 ± 0.067 for the second.

First: L68H
Second: M18C
The abundance fitness of the first is lower: -0.369 ± 0.071 for the first, -0.127 ± 0.062 for the second.

First: M18V
Second: M18F
The abundance fitness of the first is higher: -0.318 ± 0.039 for the first, -0.481 ± 0.082 for the second.

First: M18S
Second: M18I
The abundance fitness of the first is higher: 0.009 ± 0.11 for the first, -0.37 ± 0.07 for the second.

Compared with G31Y, G31R is lower in abundance fitness: -0.066 ± 0.076 for the first, -0.306 ± 0.12 for the second.

Compared with G31M, K24F is lower in abundance fitness: -0.224 ± 0.036 for the first, -0.494 ± 0.08 for the second.

Going from K24D to S2P, the abundance fitness rises from -1.33 ± 0.21 to -0.456 ± 0.18.

First: S2M
Second: S2K
The abundance fitness of the first is lower: -0.316 ± 0.038 for the first, 0.251 ± 0.055 for the second.

Going from S2H to S2I, the abundance fitness rises from -0.474 ± 0.094 to -0.234 ± 0.039.

Compared with T6C, T6A is lower in abundance fitness: -0.181 ± 0.1 for the first, -0.536 ± 0.14 for the second.

Compared with T6G, T6E is higher in abundance fitness: -0.629 ± 0.15 for the first, -0.112 ± 0.12 for the second.

First: S10C
Second: S10G
The abundance fitness of the first is lower: -0.43 ± 0.087 for the first, 0.027 ± 0.1 for the second.

S10H and S10L are within error of each other in abundance fitness: -0.275 ± 0.14 for the first, -0.261 ± 0.029 for the second.

S10R and S10D are within error of each other in abundance fitness: -0.129 ± 0.084 for the first, -0.029 ± 0.087 for the second.

First: S12Y
Second: S12K
The abundance fitness of the first is lower: -0.48 ± 0.042 for the first, -0.275 ± 0.054 for the second.

S12N and N38P are within error of each other in abundance fitness: -0.202 ± 0.052 for the first, -0.168 ± 0.069 for the second.

N38W and N38R are within error of each other in abundance fitness: 0.105 ± 0.22 for the first, -0.393 ± 0.28 for the second.

N38G and T60H are within error of each other in abundance fitness: -0.122 ± 0.15 for the first, -0.076 ± 0.05 for the second.

Compared with T60A, T60R is lower in abundance fitness: 0.074 ± 0.042 for the first, -0.126 ± 0.045 for the second.

Going from T60Y to T60N, the abundance fitness rises from -0.218 ± 0.047 to -0.036 ± 0.051.

First: T60W
Second: K3L
The abundance fitness of the first is higher: -0.123 ± 0.085 for the first, -0.474 ± 0.043 for the second.

S39N and S39Q are the same in abundance fitness: 0.075 ± 0.15 for the first, 0.075 ± 0.04 for the second.

Going from S39W to S39D, the abundance fitness rises from -0.472 ± 0.072 to -0.013 ± 0.11.

First: K46A
Second: K46G
The abundance fitness of the first is higher: -0.01 ± 0.067 for the first, -0.875 ± 0.16 for the second.

Compared with K46S, K46M is higher in abundance fitness: -0.332 ± 0.041 for the first, -0.23 ± 0.038 for the second.

K46H and K46N are within error of each other in abundance fitness: -0.35 ± 0.12 for the first, -0.489 ± 0.11 for the second.

Compared with K46V, K46W is lower in abundance fitness: -0.197 ± 0.065 for the first, -0.418 ± 0.094 for the second.

First: K46P
Second: K25H
The abundance fitness of the first is lower: -0.841 ± 0.07 for the first, -0.325 ± 0.065 for the second.

First: K25G
Second: K25I
The abundance fitness of the first is higher: -0.231 ± 0.04 for the first, -0.697 ± 0.058 for the second.

With K25Y the abundance fitness was -0.827 ± 0.077.

Source: the Human Domainome abundance scans (Beltran et al. 2025)
